Measured values from publication doi:10.1101/2025.08.29.672660.

Target: HdpA^S-LEHHHHHH (HdpA devoid of its N-terminal hydrophobic segment, His-tagged) (Helicobacter pylori strain 26695)
Experiment: crystal structure

stoichiometry N: 1
Substance: LhiA^S-SAHHHHHH (LhiA devoid of its predicted signal peptide and lipidated cysteine, His-tagged) (natural protein)
